8 molecules from paper PMC8274477 (Frontiers in Cell and Developmental Biology, 2021) can be followed below.

The target of this experiment is T1, OTULIN (OTU deubiquitinase with linear linkage specificity, FAM105B), His-tagged, biotin-labelled (human, UniProt Q96BN8 1-352, biotin (label; sites not stated)).
T1 construct: OTULIN (FAM105B), cDNA in pET28a; also called HIS-OTULIN; source: E. coli BL21 (DE3), purified (His-tag Purification Resin), labelled with biotin; not shown: His6, N-terminal, kept
The experiment in a line: peptide or protein array; HuProt human proteome microarray; 5 ug/5 ml biotin-labelled LUBAC or OTULIN in solution, 1 h at room temperature; Cy5-streptavidin, scanned at 635 nm; BSA as negative control; hits: Z-score >= 3 and I_(Mean_Ratio) >= 1.4. The note with it: both partners purified.

B1: TK1 (natural protein, human, UniProt P04183 1-234, looked up)
chain: MSCINLPTVLPGSPSKTRGQIQVILGPMFSGKSTELMRRVRRFQIAQYKCLVIKYAKDTRYSSSFCTHDRNTMEALPACLLRDVAQEALGVAVIGIDEGQFFPDIVEFCEAMANAGKTVIVAALDGTFQRKPFGAILNLVPLAESVVKLTAVCMECFREAAYTKRLGTEKEVEVIGGADKYHSVCRLCYFKKASGQPAGPDNKENCPVPGKPGEAVAARKLFAPQQILQCSPAN
notes: TK1; protein on the human proteome microarray; source: spotted on the HuProt human proteome microarray
With B1, the binding result is “binds”.

B2: TTC9C (natural protein, human, UniProt Q8N5M4 1-171, looked up)
chain: MEKRLQEAQLYKEEGNQRYREGKYRDAVSRYHRALLQLRGLDPSLPSPLPNLGPQGPALTPEQENILHTTQTDCYNNLAACLLQMEPVNYERVREYSQKVLERQPDNAKALYRAGVAFFHLQDYDQARHYLLAAVNRQPKDANVRRYLQLTQSELSSYHRKEKQLYLGMFG
notes: TTC9C; protein on the human proteome microarray; source: spotted on the HuProt human proteome microarray
Take B2: the binding result is listed as “binds”.

B3: TST (natural protein, human, UniProt Q16762 1-297, looked up)
chain: MVHQVLYRALVSTKWLAESIRTGKLGPGLRVLDASWYSPGTREARKEYLERHVPGASFFDIEECRDTASPYEMMLPSEAGFAEYVGRLGISNHTHVVVYDGEHLGSFYAPRVWWMFRVFGHRTVSVLNGGFRNWLKEGHPVTSEPSRPEPAVFKATLDRSLLKTYEQVLENLESKRFQLVDSRSQGRFLGTEPEPDAVGLDSGHIRGAVNMPFMDFLTEDGFEKGPEELRALFQTKKVDLSQPLIATCRKGVTACHVALAAYLCGKPDVAVYDGSWSEWFRRAPPESRVSQGKSEKA
notes: TST; protein on the human proteome microarray; source: spotted on the HuProt human proteome microarray
Regarding B3, the binding result was “binds”.

B4: WBP2NL (natural protein, human, UniProt Q6ICG8 1-309, looked up)
chain: MAVNQSHTENRRGALIPNGESLLKRSPNVELSFPQRSEGSNVFSGRKTGTLFLTSYRVIFITSCSISDPMLSFMMPFDLMTNLTVEQPVFAANFIKGTIQAAPYGGWEGQATFKLVFRNGDAIEFAQLMVKAASAAARGFPLRTLNDWFSSMGIYVITGEGNMCTPQMPCSVIVYGAPPAGYGAPPPGYGAPPAGYGAQPVGNEGPPVGYRASPVRYGAPPLGYGAPPAGYGAPPLGYGAPPLGYGTPPLGYGAPPLGYGAPPAGNEGPPAGYRASPAGSGARPQESTAAQAPENEASLPSASSSQVHS
notes: WBP2NL; protein on the human proteome microarray; source: spotted on the HuProt human proteome microarray
On to B4, for which the binding result is “binds”.

B5: TMEM116 (natural protein, human, UniProt Q8NCL8 1-245, looked up)
chain: MKHTQSGQSTSPLVIDYTCRVCQMAFVFSSLIPLLLMTPVFCLGNTSECFQNFSQSHKCILMHSPPSAMAELPPSANTSVCSTLYFYGIAIFLGSFVLSLLTIMVLLIRAQTLYKKFVKSTGFLGSEQWAVIHIVDQRVRFYPVAFFCCWGPAVILMIIKLTKPQDTKLHMALYVLQALTATSQGLLNCGVYGWTQHKFHQLKQEARRDADTQTPLLCSQKRFYSRGLNSLESTLTFPASTSTIF
notes: TMEM116; protein on the human proteome microarray; source: spotted on the HuProt human proteome microarray
Regarding B5, the binding result was “binds”.

B6: TTC9 (natural protein, human, UniProt Q92623 1-222, looked up)
chain: MERKGSAAGAKGNPSPPAAGEGQRPPPPLCVPGGGGGAPARGQVGAAAEPAELIRRAHEFKSQGAQCYKDKKFREAIGKYHRALLELKGLLPPPGERERDSRPASPAGALKPGRLSEEQSKTVEAIEIDCYNSLAACLLQAELVNYERVKEYCLKVLKKEGENFKALYRSGVAFYHLGDYDKALYYLKEARTQQPTDTNVIRYIQLTEMKLSRCSQREKEAM
notes: TTC9; protein on the human proteome microarray; source: spotted on the HuProt human proteome microarray
Consider B6, for which the binding result is “binds”.

B7: XAGE3 (natural protein, human, UniProt Q8WTP9 1-111, looked up)
chain: MIWRGRSTYRPRPRRSVPPPELIGPMLEPGDEEPQQEEPPTESRDPAPGQEREEDQGAAETQVPDLEADLQELSQSKTGGECGNGPDDQGKILPKSEQFKMPEGGDRQPQV
notes: XAGE3; protein on the human proteome microarray; source: spotted on the HuProt human proteome microarray
B7: the binding result was “binds”.

B8: ALKBH2 (natural protein, human, UniProt Q6NS38 1-261, looked up)
chain: MDRFLVKGAQGGLLRKQEEQEPTGEEPAVLGGDKESTRKRPRREAPGNGGHSAGPSWRHIRAEGLDCSYTVLFGKAEADEIFQELEKEVEYFTGALARVQVFGKWHSVPRKQATYGDAGLTYTFSGLTLSPKPWIPVLERIRDHVSGVTGQTFNFVLINRYKDGCDHIGEHRDDERELAPGSPIASVSFGACRDFVFRHKDSRGKSPSRRVAVVRLPLAHGSLLMMNHPTNTHWYHSLPVRKKVLAPRVNLTFRKILLTKK
notes: ALKBH2; protein on the human proteome microarray; source: spotted on the HuProt human proteome microarray
As for B8, the binding result was “binds”.
